From patent US20080166370A1, “Immunogenic Compositions Comprising Multiple Gonococcal Antigens” (CHIRON SRL, priority 2003, published 2008)

What was measured:
complement cascade = assay: C3 binding assay; settings: FIG. 10
[1] = target: T1, C4b binding protein (C4bp) (Homo sapiens, UniProt P04003); assay: ELISA for the interaction of C4bp with immobilized OmpA; settings: OmpA immobilized from 0.15 mg to 20 mg; 10% NHS as source of C4bp (FIG. 24)
T1 construct: incubated with 10% NHS as source of C4bp; from tissue; host or cells: 10% NHS (serum)
T1 sequence (P04003 49-597): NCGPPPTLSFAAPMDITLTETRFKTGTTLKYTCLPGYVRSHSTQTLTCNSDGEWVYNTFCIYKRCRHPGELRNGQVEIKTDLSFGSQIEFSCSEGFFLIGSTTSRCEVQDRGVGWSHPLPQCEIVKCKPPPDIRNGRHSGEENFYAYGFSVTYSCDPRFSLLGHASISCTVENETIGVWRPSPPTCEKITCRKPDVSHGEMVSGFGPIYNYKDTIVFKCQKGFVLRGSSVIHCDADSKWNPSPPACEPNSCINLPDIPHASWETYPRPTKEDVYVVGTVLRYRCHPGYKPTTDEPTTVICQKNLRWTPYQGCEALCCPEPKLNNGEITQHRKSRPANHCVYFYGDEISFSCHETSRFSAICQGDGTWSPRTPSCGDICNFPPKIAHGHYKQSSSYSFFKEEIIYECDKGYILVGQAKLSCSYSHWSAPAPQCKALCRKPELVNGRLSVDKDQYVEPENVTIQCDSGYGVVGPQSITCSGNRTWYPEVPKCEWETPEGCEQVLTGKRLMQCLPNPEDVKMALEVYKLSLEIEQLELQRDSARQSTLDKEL
T1 sequence (P20851 18-252 partner): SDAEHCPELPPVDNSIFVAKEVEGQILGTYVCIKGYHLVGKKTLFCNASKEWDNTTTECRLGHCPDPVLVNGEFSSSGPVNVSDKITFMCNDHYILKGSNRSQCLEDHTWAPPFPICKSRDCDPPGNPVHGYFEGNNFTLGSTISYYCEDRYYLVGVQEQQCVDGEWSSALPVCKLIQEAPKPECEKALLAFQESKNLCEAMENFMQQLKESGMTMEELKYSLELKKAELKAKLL
Experimental: It is known that some antigens contribute to serum resistance by binding to complement regulatory protein C4b binding protein (C4bp), leading to a decrease in serum killing by complement attack. […] In further experiments, purified OmpA and three negative control proteins were immobilized in the wells of a microtiter plate at different concentrations (from 0.15 mg to 20 mg). The wells were blocked with 5% skimmed milk in PBS and then incubated with 10% NHS as source of C4bp.

[2] = target: T2, C4b binding protein (C4bp) (Homo sapiens, UniProt P04003); assay: Dot blot ligand overlay analysis of C4bp binding; settings: C4bp 10 mg/ml; OmpA from 0.1 mg to 4 mg (FIG. 23)
T2 sequence (P04003 49-597): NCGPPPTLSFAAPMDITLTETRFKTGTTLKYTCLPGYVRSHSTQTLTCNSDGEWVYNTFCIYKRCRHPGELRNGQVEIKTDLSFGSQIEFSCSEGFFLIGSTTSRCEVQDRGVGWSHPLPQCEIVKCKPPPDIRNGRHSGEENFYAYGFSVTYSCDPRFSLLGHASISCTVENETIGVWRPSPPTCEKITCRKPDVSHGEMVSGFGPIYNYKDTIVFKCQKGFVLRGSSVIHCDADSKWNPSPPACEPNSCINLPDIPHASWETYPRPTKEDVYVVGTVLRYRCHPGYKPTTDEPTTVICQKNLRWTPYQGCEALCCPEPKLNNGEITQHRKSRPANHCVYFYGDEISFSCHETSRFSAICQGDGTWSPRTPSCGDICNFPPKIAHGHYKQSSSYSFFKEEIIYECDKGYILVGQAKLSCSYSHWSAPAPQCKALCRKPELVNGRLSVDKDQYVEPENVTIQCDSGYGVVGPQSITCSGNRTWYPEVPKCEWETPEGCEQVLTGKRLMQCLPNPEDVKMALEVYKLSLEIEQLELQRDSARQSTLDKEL

[3] = system: ME-180 human cervical epithelial cells; assay: Immunofluorescence microscopy of purified OmpA binding to epithelial cells; assay type: cell-based; settings: 1 mg/ml purified OmpA vs PBS control (FIG. 19)
Experimental: Monolayers of the ME-180 cells were treated with PBS (control) or with 1 mg/ml purified OmpA, labeled using polyclonal mouse antiserum against recombinant Ng OmpA-His, followed by anti-mouse Alexa Fluor 488 conjugated antibodies. The results are in FIG. 19.

B1: App: gonococcal App autotransporter protein, SEQ ID 7, related to meningococcal adhesion penetration protein (protein, listed as Neisseria gonorrhoeae)
chain: MKTTDKRTTETHRKAPKTGRIRFSPAYLAICLSFGILPQARAGHTYFGINYQYYRDFAENKGKFAVGAKDIEVYNKKGELVGKSMTKAPMIDFSVVSRNGVAALAGDQYIVSVAHNGGYNNVDFGAEGSNPDQHRFSYQIVKRNNYKAGTNGHPYGGDYHMPRLHKFVTDAEPVEMTSYMDGWKYADLNKYPDRVRIGAGRQYWRSDEDEPNNRESSYHIASAYSWLVGGNTFAQNGSGGGTVNLGSEKIKHSPYGFLPTGGSFGDSGSPMFIYDAQKQKWLINGVLQTGNPYIGKSNGFQLVRKDWFYDEIFAGDTHSVFYEPHQNGKYFFNDNNNGAGKIDAKHKHYSLPYRLKTRTVQLFNVSLSETAREPVYHAAGGVNSYRPRLNNGENISFIDKGKGELILTSNINQGAGGLYFEGNFTVSPKNNETWQGAGVHISDGSTVTWKVNGVANDRLSKIGKGTLLVQAKGENQGSVSVGDGKVILDQQADDQGKKQAFSEIGLVSGRGTVQLNADNQFNPDKLYFGFRGGRLDLNGHSLSFHRIQNTDEGAMIVNHNQDKESTVTITGNKDITTTGNNNNLDSKKEIAYNGWFGEKDATKTNGGLNLNYPPEEADRTLLLSGGTNLNGNITQTNGKLFFSGRPTPHAYNHLGSGWSKMEGIPQGEIVWDNDWIDRTFKAENFHIQGGQAVVSRNVAKVEGDWHLSNHAQAVFGVAPHQSHTICTRSDWTGLTSCTEKTITDDKVIASLSKTDVRGNVSLADHAHLNLTGLATFNGNLVQAETRTIRLRANATQNGNLSLVGNAQATFNQATLNGNTSASDNASFNLSNNAVQNGSLTLSDNAKANVSHSALNGNVSLADKAVFHFENSRFTGKISGGKDTALHLKDSEWTLPSGTELGNLNLDNATITLNSAYRHDAAGAQTGSAADAPRRRSRRSLLSVTPPTSAESRFNTLTVNGKLNGQGTFRFMSELFGYRSGKLKLAESSEGTYTLAVNNTGNEPVSLEQLTVVEGKDNTPLSENLNFTLQNEHVDAGAWRYQLIRKDGEFRLHNPVKEQELSDKLGKAGETEAALTAKQAQLAAKQQAEKDNAQSLDALIAAGRNATEKAESVAEPARQAGGENAGIMQAEEEKKRVQADKDTALAKQREAETRPATTAFPRARRARRDLPQPQPQPQPQPQRDLISRYANSGLSEFSATLNSVFAVQDELDRVFAEDRRNAVWTSGIRDTKHYRSQDFRAYRQQTDLRQIGMQKNLGSGRVGILFSHNRTGNTFDDGIGNSARLAHGAVFGQYGIGRFDIGISAGAGFSSGSLSDGIRGKIRRRVLHYGIQARYRAGFGGFGIEPHIGATRYFVQKADYRYENVNIATPGLAFNRYRAGIKADYSFKPAQHISITPYLSLSYTDAASGKVRTRVNTAVLAQDFGKTRSAEWGVNAEIKGFTLSLHAAAAKGPQLEAQHSAGIKLGYRW
Complement cascade
  elicitation of complement-activating antibodies: able to elicit antibodies which activate the complement cascade

B2: OmpA: gonococcal OmpA protein, SEQ ID 2; expressed in E. coli with C-terminal His-tag and purified (protein, listed as Neisseria gonorrhoeae)
chain: MTFFKPSTVVLTASALALSGCVADPVTGQQSPNKSAMYGLGGAAVCGIVGALTHSGKGARNSALACGAIGAGVGGYMDYQEQRLRQNLAGTQIEIQRQGNQIRLVMPESVTFATGSAALGGSAQYALNTAAQTLVQYPDTTLTINGHTDNTGSDAVNNPLSQHRAQAVAYYLQTRGVAASRLTVYGYGSHMPVASNATVEGRAQNRRVEILINPDQRAVNAARHM
modifications: C-terminal His-tag
notes: expressed in E. coli with C-terminal His-tag and purified
[1]
  bound C4bp (ELISA): bound C4bp was detected
[2]
  C4bp binding (dot blot): binding
[3]
  binding to ME-180 cells: binds
